From the supplement of paper PMC5998384

Key:
[1] = system: HeLa Kyoto; test: melting temperature (median over replicates), in situ; higher = more thermally stable
[2] = system: HeLa Kyoto; test: solubility in G1/S (NP-40 vs SDS abundance) (log2 ratio); higher = more soluble; details: cell cycle stage: G1/S
[3] = system: HeLa Kyoto; test: thermal stability score vs G1/S (z-score of summed log2 fold changes over temperatures); higher = more thermally stable than in G1/S
[4] = system: HeLa Kyoto; test: solubility change mitosis vs G1/S (difference of NP-40 vs SDS log2 ratios) (log2 ratio difference); higher = more soluble in mitosis
[5] = cell cycle stage: early G1 (4.5 h after nocodazole release)
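Throughout, for melting temperature (median over replicates), in situ: HeLa Kyoto cells synchronized by double thymidine or nocodazole block, proteins quantified by TMT10plex mass spectrometry, three independent biological replicates.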
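Throughout, for solubility change mitosis vs G1/S (difference of NP-40 vs SDS log2 ratios): synchronized HeLa Kyoto cells (double thymidine block for G1/S, nocodazole release for mitosis), protein amounts in NP-40 versus SDS lysates quantified by mass spectrometry, three biological replicates.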
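Throughout, for solubility in G1/S (NP-40 vs SDS abundance): HeLa Kyoto cells arrested at G1/S by double thymidine block, proteins quantified by TMT10plex mass spectrometry in mild NP-40 versus SDS extracts, three biological replicates.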
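Throughout, for thermal stability score vs G1/S (z-score of summed log2 fold changes over temperatures): synchronized HeLa Kyoto cells, proteins quantified by TMT10plex mass spectrometry, three biological replicates, mitosis taken 0.5 h after nocodazole release, G1/S directly after double thymidine block.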

Sequence of SLC7A1 (chain, as listed by the source): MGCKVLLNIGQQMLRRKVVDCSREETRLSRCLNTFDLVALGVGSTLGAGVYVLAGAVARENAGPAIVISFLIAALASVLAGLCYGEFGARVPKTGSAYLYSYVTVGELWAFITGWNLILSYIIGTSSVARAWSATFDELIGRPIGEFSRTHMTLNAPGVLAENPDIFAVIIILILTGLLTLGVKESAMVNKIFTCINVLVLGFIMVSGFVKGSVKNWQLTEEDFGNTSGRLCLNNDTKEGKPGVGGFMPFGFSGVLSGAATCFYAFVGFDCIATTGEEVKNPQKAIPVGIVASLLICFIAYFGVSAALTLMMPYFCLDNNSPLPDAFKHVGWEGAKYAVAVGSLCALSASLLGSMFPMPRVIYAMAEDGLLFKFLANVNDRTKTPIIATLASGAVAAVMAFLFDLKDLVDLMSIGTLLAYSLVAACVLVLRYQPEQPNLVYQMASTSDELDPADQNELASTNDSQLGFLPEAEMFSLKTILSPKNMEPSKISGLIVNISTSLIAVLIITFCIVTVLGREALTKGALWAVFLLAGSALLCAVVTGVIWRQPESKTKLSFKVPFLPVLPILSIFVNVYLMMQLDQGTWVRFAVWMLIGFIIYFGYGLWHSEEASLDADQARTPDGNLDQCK

| Substance | melting temperature ([1]; cell cycle stage: G1/S) [°C] | melting temperature ([1]; cell cycle stage: mitosis) [°C] | solubility in G1/S (log2) [2] | thermal stability score [3, 5] | thermal stability score ([3]; cell cycle stage: mitosis) | solubility change mitosis (log2) [4] |
| --- | --- | --- | --- | --- | --- | --- |
| MDFPCLWLGLLLPLVAALDFNYHRQEGMEAFLKTVAQNYSSVTHLHSIGKSVKGRNLWVLVVGRFPKEHRIGIPEFKYVANMHGDETVGRELLLHLIDYLVTSDGKDPEITNLINSTRIHIMPSMNPDGFEAVKKPDCYYSIGRENYNQYDLNRNFPDAFEYNNVSRQPETVAVMKWLKTETFVLSANLHGGALVASYPFDNGVQATGALYSRSLTPDDDVFQYLAHTYASRNPNMKKGDECKNKMNFPNGVTNGYSWYPLQGGMQDYNYIWAQCFEITLELSCCKYPREEKLPSFWNNNKASLIEYIKQVHLGVKGQVFDQNGNPLPNVIVEVQDRKHICPYRTNKYGEYYLLLLPGSYIINVTVPGHDPHITKVIIPEKSQNFSALKKDILLPFQGQLDSIPVSNPSCPMIPLYRNLPDHSAATKPSLFLFLVSLLHIFFK | 57.6 | 56.3 | 0.0898 | 2.04 | 3.27 | -0.0348 |
| SLC7A1 | 61.5 | 60.9 | -0.215 | -2.64 | -4.52 | -0.171 |
| MSFIDPYQHIIVEHQYSHKFTVVVLRATKVTKGAFGDMLDTPDPYVELFISTTPDSRKRTRHFNNDINPVWNETFEFILDPNQENVLEITLMDANYVMDETLGTATFTVSSMKVGEKKEVPFIFNQVTEMVLEMSLEVCSCPDLRFSMALCDQEKTFRQQRKEHIRESMKKLLGPKNSEGLHSARDVPVVAILGSGGGFRAMVGFSGVMKALYESGILDCATYVAGLSGSTWYMSTLYSHPDFPEKGPEEINEELMKNVSHNPLLLLTPQKVKRYVESLWKKKSSGQPVTFTDIFGMLIGETLIHNRMNTTLSSLKEKVNTAQCPLPLFTCLHVKPDVSELMFADWVEFSPYEIGMAKYGTFMAPDLFGSKFFMGTVVKKYEENPLHFLMGVWGSAFSILFNRVLGVSGSQSRGSTMEEELENITTKHIVSNDSSDSDDESHEPKGTENEDAGSDYQSDNQASWIHRMIMALVSDSALFNTREGRAGKVHNFMLGLNLNTSYPLSPLSDFATQDSFDDDELDAAVADPDEFERIYEPLDVKSKKIHVVDSGLTFNLPYPLILRPQRGVDLIISFDFSARPSDSSPPFKELLLAEKWAKMNKLPFPKIDPYVFDREGLKECYVFKPKNPDMEKDCPTIIHFVLANINFRKYRAPGVPRETEEEKEIADFDIFDDPESPFSTFNFQYPNQAFKRLHDLMHFNTLNNIDVIKEAMVESIEYRRQNPSRCSVSLSNVEARRFFNKEFLSKPKA [PLA2G4A] | 50.3 | 50.1 | -0.0367 | 1.55 | 0.83 | -0.0979 |
| MEIGTEISRKIRSAIKGKLQELGAYVDEELPDYIMVMVANKKSQDQMTEDLSLFLGNNTIRFTVWLHGVLDKLRSVTTEPSSLKSSDTNIFDSNVPSNKSNFSRGDERRHEAAVPPLAIPSARPEKRDSRVSTSSQESKTTNVRQTYDDGAATRLMSTVKPLREPAPSEDVIDIKPEPDDLIDEDLNFVQENPLSQKKPTVTLTYGSSRPSIEIYRPPASRNADSGVHLNRLQFQQQQNSIHAAKQLDMQSSWVYETGRLCEPEVLNSLEETYSPFFRNNSEKMSMEDENFRKRKLPVVSSVVKVKKFNHDGEEEEEDDDYGSRTGSISSSVSVPAKPERRPSLPPSKQANKNLILKAISEAQESVTKTTNYSTVPQKQTLPVAPRTRTSQEELLAEVVQGQSRTPRISPPIKEEETKGDSVEKNQGTQQRQLLSRLQIDPVMAETLQMSQDYYDMESMVHADTRSFILKKPKLSEEVVVAPNQESGMKTADSLRVLSGHLMQTRDLVQPDKPASPKFIVTLDGVPSPPGYMSDQEEDMCFEGMKPVNQTAASNKGLRGLLHPQQLHLLSRQLEDPNGSFSNAEMSELSVAQKPEKLLERCKYWPACKNGDECAYHHPISPCKAFPNCKFAEKCLFVHPNCKYDAKCTKPDCPFTHVSRRIPVLSPKPAVAPPAPPSSSQLCRYFPACKKMECPFYHPKHCRFNTQCTRPDCTFYHPTINVPPRHALKWIRPQTSE [ZC3H14] | 49.7 | 51.2 | -0.475 | -0.823 | 0.321 | 0.656 |
| MSGAALGLEIVFVFFLALFLLHRYGDFKKQHRLVIIGTLLAWYLCFLIVFILPLDVSTTIYNRCKHAAANSSPPENSNITGLYATANPVPSQHPCFKPWSYIPDGIMPIFWRVVYWTSQFLTWILLPFMQSYARSGGFSITGKIKTALIENAIYYGTYLLIFGAFLIYVAVNPHLHLEWNQLQTIGIAAANTWGLFLLVLLLGYGLVEIPRSYWNGAKRGYLLMKTYFKAAKLMTEKADAEENLEDAMEEVRKVNESIKYNHPLRKCVDTILKKCPTEYQEKMGRNMDDYEDFDEKHSIYPSEKSLVKLHKQVIYSVQRHRRTQVQWQILLEQAFYLEDVAKNETSATHQFVHTFQSPEPENRFIQYFYNPTFEWYWECLLRPWFYKILAVVLSIFSVIVVWSECTFFSTTPVLSLFAVFIQLAEKTYNYIYIEIACFLSIFFLSICVYSTVFRIRVFNYYYLASHHQTDAYSLLFSGMLFCRLTPPLCLNFLGLTHMDSSISHKNTQPTAYTSIMGSMKVLSFIADGFYIYYPMLVVILCIATYFSLGTRCLNLLGFQQFMGDDDMTSDLVNEGKELIRKEKRKRQRQEEGENRRREWKERYGHNREDSTRNRNIHTDPKESNFSDVNTNRSAFKYTRANNRTERDRIELLQDAEPLDFNAETFTDDPLESESGRYQPGGRYLSMSRSDIFNDV [LMBRD2] | 55.4 | 53.8 | -0.331 | -0.0528 | -1.48 | -0.00686 |
| MAAVRGLRVSVKAEAPAGPALGLPSPEAESGVDRGEPEPMEVEEGELEIVPVRRSLKELIPDTSRRYENKAGSFITGIDVTSKEAIEKKEQRAKRFHFRSEVNLAQRNVALDRDMMKKAIPKVRLETIYICGVDEMSTQDVFSYFKEYPPAHIEWLDDTSCNVVWLDEMTATRALINMSSLPAQDKIRSRDASEDKSAEKRKKDKQEDSSDDDEAEEGEVEDENSSDVELDTLSQVEEESLLRNDLRPANKLAKGNRLFMRFATKDDKKELGAARRSQYYMKYGNPNYGGMKGILSNSWKRRYHSRRIQRDVIKKRALIGDDVGLTSYKHRHSGLVNVPEEPIEEEEEEEEEEEEEEEEDQDMDADDRVVVEYHEELPALKQPRERSASRRSSASSSDSDEMDYDLELKMISTPSPKKSMKMTMYADEVESQLKNIRNSMRADSVSSSNIKNRIGNKLPPEKFADVRHLLDEKRQHSRPRPPVSSTKSDIRQRLGKRPHSPEKAFSSNPVVRREPSSDVHSRLGVPRQDSKGLYADTREKKSGNLWTRLGSAPKTKEKNTKKVDHRAPGAEEDDSELQRAWGALIKEKEQSRQKKSRLDNLPSLQIEVSRESSSGSEAES [NCBP3] | 45.6 | 49.4 | -0.537 | 1.38 | 2.56 | 0.394 |
| MSRRALRRLRGEQRGQEPLGPGALHFDLRDDDDAEEEGPKRELGVRRPGGAGKEGVRVNNRFELINIDDLEDDPVVNGERSGCALTDAVAPGNKGRGQRGNTESKTDGDDTETVPSEQSHASGKLRKKKKKQKNKKSSTGEASENGLEDIDRILERIEDSTGLNRPGPAPLSSRKHVLYVEHRHLNPDTELKRYFGARAILGEQRPRQRQRVYPKCTWLTTPKSTWPRYSKPGLSMRLLESKKGLSFFAFEHSEEYQQAQHKFLVAVESMEPNNIVVLLQTSPYHVDSLLQLSDACRFQEDQEMARDLVERALYSMECAFHPLFSLTSGACRLDYRRPENRSFYLALYKQMSFLEKRGCPRTALEYCKLILSLEPDEDPLCMLLLIDHLALRARNYEYLIRLFQEWEAHRNLSQLPNFAFSVPLAYFLLSQQTDLPECEQSSARQKASLLIQQALTMFPGVLLPLLESCSVRPDASVSSHRFFGPNAEISQPPALSQLVNLYLGRSHFLWKEPATMSWLEENVHEVLQAVDAGDPAVEACENRRKVLYQRAPRNIHRHVILSEIKEAVAALPPDVTTQSVMGFDPLPPSDTIYSYVRPERLSPISHGNTIALFFRSLLPNYTMEGERPEEGVAGGLNRNQGLNRLMLAVRDMMANFHLNDLEAPHEDDAEGEGEWD [TCF25] | 49.4 | 48.4 | 0.0319 | 0.666 | 0.63 | 0.0389 |
| MEDAGGGEETPAPEAPHPPQLAPPEEQGLLFQEETIDLGGDEFGSEENETASEGSSPLADKLNEHMMESVLISDSPNSEGDAGDLGRVRDEAEPGGEGDPGPEPAGTPSPSGEADGDCAPEDAAPSSGGAPRQDAAREVPGSEAARPEQEPPVAEPVPVCTIFSQRAPPASGDGFEPQMVKSPSFGGASEASARTPPQVVQPSPSLSTFFGDTAASHSLASDFFDSFTTSAFISVSNPGAGSPAPASPPPLAVPGTEGRPEPVAMRGPQAAAPPASPEPFAHIQAVFAGSDDPFATALSMSEMDRRNDAWLPGEATRGVLRAVATQQRGAVFVDKENLTMPGLRFDNIQGDAVKDLMLRFLGEKAAAKRQVLNADSVEQSFVGLKQLISCRNWRAAVDLCGRLLTAHGQGYGKSGLLTSHTTDSLQLWFVRLALLVKLGLFQNAEMEFEPFGNLDQPDLYYEYYPHVYPGRRGSMVPFSMRILHAELQQYLGNPQESLDRLHKVKTVCSKILANLEQGLAEDGGMSSVTQEGRQASIRLWRSRLGRVMYSMANCLLLMKDYVLAVEAYHSVIKYYPEQEPQLLSGIGRISLQIGDIKTAEKYFQDVEKVTQKLDGLQGKIMVLMNSAFLHLGQNNFAEAHRFFTEILRMDPRNAVANNNAAVCLLYLGKLKDSLRQLEAMVQQDPRHYLHESVLFNLTTMYELESSRSMQKKQALLEAVAGKEGDSFNTQCLKLA [TRAPPC12] | 50.1 | 49.2 | 0.188 | 0.55 | 0.59 | -0.258 |
| MATYTCITCRVAFRDADMQRAHYKTDWHRYNLRRKVASMAPVTAEGFQERVRAQRAVAEEESKGSATYCTVCSKKFASFNAYENHLKSRRHVELEKKAVQAVNRKVEMMNEKNLEKGLGVDSVDKDAMNAAIQQAIKAQPSMSPKKAPPAPAKEARNVVAVGTGGRGTHDRDPSEKPPRLQWFEQQAKKLAKQQEEDSEEEEEDLDGDDWEDIDSDEELECEDTEAMDDVVEQDAEEEEAEEGPPLGAIPITDCLFCSHHSSSLMKNVAHMTKDHSFFIPDIEYLSDIKGLIKYLGEKVGVGKICLWCNEKGKSFYSTEAVQAHMNDKSHCKLFTDGDAALEFADFYDFRSSYPDHKEGEDPNKAEELPSEKNLEYDDETMELILPSGARVGHRSLMRYYKQRFGLSRAVAVAKNRKAVGRVLQQYRALGWTGSTGAALMRERDMQYVQRMKSKWMLKTGMKNNATKQMHFRVQVRF [ZNF622] | 53.3 | 53.7 | -0.924 | -2.54 | -0.435 | 0.0193 |
| MAAPGGRGRSLSGLLPAQTSLEYALLDAVTQQEKDSLVYQYLQKVDGWEQDLSVPEFPEGLEWLNTEEPISVYKDLCGKIVVLDFFTYCCINCIHLLPDLHALEHTYSDKDGLLIIGVHSAKFPNEKVLDNIKSAVLRYNITHPMVNDADASLWQELEVSCWPTLVILGPRGNMLFSLIGEGHKDKLFLYTSIALKYYKDRGQIRDNKIGIKLYKDSLPPSPLLFPGKVTVDQVTDRLVIADTGHHRILVVWKNGQIQYSIGGPNPGRKDGIFSESTFNSPQGVAIMNNIIYVADTENHLIRKIDLEAEKVSTVAGIGIQGTDKEGGAKGEQQPISSPWDVVFGTSGSEVQRGDILWIAMAGTHQIWALLLDSGKLPKKNELTKGTCLRFAGSGNEENRNNAYPHKAGFAQPSGLSLASEDPWSCLFVADSESSTVRTVSLKDGAVKHLVGGERDPMNLFAFGDVDGVGINAKLQHPLGVTWDKKRNLLYVADSYNHKIKVVDPKTKNCTTLAGTGDTNNVTSSSFTESTFNEPGGLCIGENGELLYVADTNNHQIKVMDLETKMVSVLPIFRSENAVVDGPFLVEKQKTLPKLPKSAPSIRLSPVTACAGQTLQFKLRLDLPSGSKLTEGVSSCWFLTAEGNEWLLQGQIAAGDIENISSQPTISLQIPDDCLSLEAIVSVSVFLYYCSADSSACMMKAILFSQPLQITDTQQGCIAPVELRYVF [NHLRC2] | 52 | 52.1 | 0.0639 | 0.332 | -0.145 | -0.199 |
